Here are results for two molecules from US20240368272A1 (UNIVERSITY OF BERN, published 2024).

The target in experiment [1] is T1, N-terminally biotinylated KCNQ1 peptide (Nterm-Biotin-(CH2O)4-AEKDAVNESGRVEFGSYADA-Cterm) (human, N-terminal Biotin-(CH2O)4-).
T1 construct: Immobilised on streptavidin biosensor tips for Octet BLI
T1 peptide: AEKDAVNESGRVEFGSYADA
Nature of the experiment: BLI (Octet RED96), biotinylated peptide on streptavidin tips, antibody in solution, 1:1 model, duplicate. The protocol:
(§1) FIG. 16. Kinetic measurements of mAb binding to 20aa KCNQ1 target sequence.
(§2) Binding kinetics of KCNQ1 peptide interactions with IgG2a 8-F11-D4 was monitored using Octet RED96 Bio-Layer Interferometry (Sartorius). All measurements were performed in duplicate at 25° C. in an assay-specific buffer containing 1× PBS pH 7.4, 1× kinetic buffer and 1% BSA using 96-well plates with orbital shake speed of 1,000 rpm. The binding curves were generated by first immobilizing 1 mM N-terminally biotinylated KCNQ1 peptide on streptavidin-coated biosensor tips for 2.5 min followed by a baseline equilibration step for 5 min. The biosensor tips were then submerged in wells containing […] mAbs for 5 min to monitor formation of the mAb-peptide complex, followed by antibody dissociation in the assay buffer for 5 minutes. A shift in the interference pattern of white light reflected from the surface of a biosensor tip caused by antibody binding/dissociation was monitored in real time. Antibody-peptide interactions were analyzed by a 1:1 binding model and the dissociation constants (KDs) were determined as ratios of dissociation (koff) and association (kon) binding rate constants derived using non-linear fitting model in GraphPad Prism.
Background: In BLI a coated tip is dipped into the sample, and binding shifts an interference pattern.

The target of experiment [2] is T1, N-terminally biotinylated KCNQ1 peptide …. Nature of the experiment: bio-layer interferometry (Octet RED96), biotinylated KCNQ1 peptide on streptavidin tips, 1:1 model, mean of duplicate runs. As to the method: as §1, §2
In experiment [3] the target is T2, KCNQ1 channel peptide (AEKDAVNESGRVEFGSYADA) (human).
T2 construct: Coupled to KLH for immunisation; the free peptide (2.12 kDa) was the analyte in SPR; also called KCNQ1 peptide; antigenic peptide
T2 peptide: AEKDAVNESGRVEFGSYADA
Kind of experiment: SPR (Biacore 8K), antibody immobilised on CM5 chip, peptide as analyte, mean of triplicate. As to the method: Antibody kinetics and affinity measurement: A Biacore 8K Surface Plasmon Resonance (SPR) instrument (GE Healthcare Life Sciences, ProteoGenix, France) equipped with a CM5 sensor chip was used to generate binding kinetic rate and affinity constants at room temperature. IgG2a 8-F11-D4 (10 μg/ml) was immobilized onto the CM5 chip by amide coupling, following manufacturer's protocol. The surface chemistry was activated using 1-Ethyl-3-(3-dimethylaminopropyl) carbodiimide hydrochloride (EDC) and sulfo-N-Hydroxysuccinimide (NHS) reagents prior to immobilization, while ethanolamine was used to deactivate remaining active esters. Samples were prepared in HBS-EP⁺ buffer composed of 10 mM HEPES (pH 7.4), 150 mM NaCl, 3 mM EDTA, 0.05% Surfactant P20. The antigenic peptide was suspended in 20 mM sodium acetate (pH 4.5) and glycine-HCl (pH 1.5) was used as regeneration buffer. […] This level was considered optimal based upon the calculation of the maximal response (Rₘₐₓ) of analyte (antigenic peptide) to ligand (IgG2a): Rₘₐₓ=(MWanalyte/MWligand)×RL×Sₘ, where MWanalyte and MWligand are the molecular weights of the peptide (analyte, 2.12 kDa) to the antibody (ligand, 180 kDa as determined by SDS-PAGE), respectively, RL is the target amount of ligand bound in RU, and Sₘ represents the stoichiometric ratio of the analyte/ligand interaction (Sₘ equals 1). A theoretical Rₘₐₓ of […] is achieved at 10′000 RU of ligand. […] Injections were performed in triplicate to assess for the assay's reproducibility. All data were processed and analyzed with Biacore 8K Evaluation Software.
Background: SPR reads the build-up and loss of mass on a sensor chip optically.

Experiment [4] deals with T3, human KCNQ1 (expressed together with KCNE1 as a separate chain; IKs channel) (human, UniProt P51787 1-676).
T3 sequence: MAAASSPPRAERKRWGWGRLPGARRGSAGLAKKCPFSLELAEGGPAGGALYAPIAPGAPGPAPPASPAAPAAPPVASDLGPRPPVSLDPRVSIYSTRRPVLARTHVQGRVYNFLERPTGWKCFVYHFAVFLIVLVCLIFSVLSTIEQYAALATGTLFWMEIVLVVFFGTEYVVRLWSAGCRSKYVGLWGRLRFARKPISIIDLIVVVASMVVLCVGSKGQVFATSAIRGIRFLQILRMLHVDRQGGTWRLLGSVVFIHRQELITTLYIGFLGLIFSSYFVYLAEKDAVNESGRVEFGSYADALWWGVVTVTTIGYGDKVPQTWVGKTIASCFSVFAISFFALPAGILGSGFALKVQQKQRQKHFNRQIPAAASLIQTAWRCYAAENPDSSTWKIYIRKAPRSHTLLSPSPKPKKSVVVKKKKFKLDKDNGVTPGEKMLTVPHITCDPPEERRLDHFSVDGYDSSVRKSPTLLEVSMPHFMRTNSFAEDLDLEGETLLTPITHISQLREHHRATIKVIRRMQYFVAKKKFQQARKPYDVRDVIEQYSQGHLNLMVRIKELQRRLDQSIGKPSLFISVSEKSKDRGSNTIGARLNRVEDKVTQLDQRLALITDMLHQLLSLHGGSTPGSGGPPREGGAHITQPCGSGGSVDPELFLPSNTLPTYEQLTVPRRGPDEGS
Nature of the experiment: cell-based or functional assay.

B1: IgG2a 8-F11-D4 monoclonal antibody (antibody, V domains shown)
VH: EVKLVESGGGLVKPGGSLQLSCAASGFTFSNYAMSWVRQTPEKRLEWVASISGGGNTYYPDSVKGRFTISRDNARNILYLQMNSLRSEDTAMYYCVRATRDYFDYWGQGTTLTVSS
VL: DIVMSQSPSSLAVSVGEKVTMSCKSSQSLLNSRTRKSYLAWYQQKPGQSPKLLIYWASTRESGVPDRFTGSGSGTDFTLTISSVQAEDLAVYSCEQSYYLYTFGGGTKLEIK
notes: also called mouse monoclonal IgG2a 8-F11-D4; murine monoclonal anti-KCNQ1 antibody IgG2a 8-F11-D4
With B1, the Kd in experiment [1] is about 4 nM. Besides, in experiment [2], binding was characterised by a dissociation constant (Kd) of 3.7 nM. Also, in experiment [3], the affinity, expressed as Kd, was 9.02 nM; the koff was 0.00082 s⁻¹; the kon was 90900 M⁻¹ s⁻¹. Further, in experiment [4], the “half-maximal effective concentration (EC50) of APD90 reduction in hiPSC-CMCs” value was 5.7 µg/mL; the “mean IKs step current at +70 mV, whole-cell patch clamp, CHO cells stably expressing human IKs channels, 30 µg/ml IgG” value turned out to be 1.6 fold; the “mean IKs tail current upon repolarization to -40 mV, whole-cell patch clamp, CHO cells stably expressing human IKs channels, 30 µg/ml IgG” value worked out at 1.5 fold.

B2: recombinant murine IgG2a 8-F11-D4 antibody (antibody, V domains shown)
VH: EVKLVESGGGLVKPGGSLQLSCAASGFTFSNYAMSWVRQTPEKRLEWVASISGGGNTYYPDSVKGRFTISRDNARNILYLQMNSLRSEDTAMYYCVRATRDYFDYWGQGTTLTVSS
VL: DIVMSQSPSSLAVSVGEKVTMSCKSSQSLLNSRTRKSYLAWYQQKPGQSPKLLIYWASTRESGVPDRFTGSGSGTDFTLTISSVQAEDLAVYSCEQSYYLYTFGGGTKLEIK
Regarding B2, in experiment [4], the “IKs step current at +70 mV versus control, CHO cells stably expressing human IKs, 30 µg/ml recombinant antibody” value is 1.6 fold and the “IKs tail current versus control, CHO cells stably expressing human IKs, 30 µg/ml recombinant antibody” value was determined as 1.5 fold.

What is called Kd is the constant that tells how readily two partners part at equilibrium. Low readings indicate tighter binding, high ones weaker binding. As a reminder, the koff is the rate constant with which the complex falls apart. In general, kon refers to the rate constant with which the complex forms. A higher kon goes with fast association.
